# From patent US20110033518A1
# Values joined by “and” are separate entries in the source; they are usually repeats but may differ in a detail not shown here. Identical values can stand only once.
# What was measured:
# [1] = biological target: human ABCA1 transporter on stably transfected HeLa cells (human) (UniProt O95477); experiment: cell-based or functional assay
# [2] = biological target: human ABCA1 transporter on stably transfected HeLa cells (human) (UniProt O95477); experiment: direct binding of 125I-L-37pA at 1 µg/ml to ABCA1-transfected HeLa cells, 1 hour, 4 C; set-up: unit not given here
# [3] = biological target: human ABCA1 transporter on stably transfected HeLa cells (human) (UniProt O95477); experiment: two-step sequential competitive binding on ABCA1-transfected HeLa cells, competitor at 8 µM, tracer 125I-L-37pA
# Chain of UniProt O95477 (O95477 whole entry): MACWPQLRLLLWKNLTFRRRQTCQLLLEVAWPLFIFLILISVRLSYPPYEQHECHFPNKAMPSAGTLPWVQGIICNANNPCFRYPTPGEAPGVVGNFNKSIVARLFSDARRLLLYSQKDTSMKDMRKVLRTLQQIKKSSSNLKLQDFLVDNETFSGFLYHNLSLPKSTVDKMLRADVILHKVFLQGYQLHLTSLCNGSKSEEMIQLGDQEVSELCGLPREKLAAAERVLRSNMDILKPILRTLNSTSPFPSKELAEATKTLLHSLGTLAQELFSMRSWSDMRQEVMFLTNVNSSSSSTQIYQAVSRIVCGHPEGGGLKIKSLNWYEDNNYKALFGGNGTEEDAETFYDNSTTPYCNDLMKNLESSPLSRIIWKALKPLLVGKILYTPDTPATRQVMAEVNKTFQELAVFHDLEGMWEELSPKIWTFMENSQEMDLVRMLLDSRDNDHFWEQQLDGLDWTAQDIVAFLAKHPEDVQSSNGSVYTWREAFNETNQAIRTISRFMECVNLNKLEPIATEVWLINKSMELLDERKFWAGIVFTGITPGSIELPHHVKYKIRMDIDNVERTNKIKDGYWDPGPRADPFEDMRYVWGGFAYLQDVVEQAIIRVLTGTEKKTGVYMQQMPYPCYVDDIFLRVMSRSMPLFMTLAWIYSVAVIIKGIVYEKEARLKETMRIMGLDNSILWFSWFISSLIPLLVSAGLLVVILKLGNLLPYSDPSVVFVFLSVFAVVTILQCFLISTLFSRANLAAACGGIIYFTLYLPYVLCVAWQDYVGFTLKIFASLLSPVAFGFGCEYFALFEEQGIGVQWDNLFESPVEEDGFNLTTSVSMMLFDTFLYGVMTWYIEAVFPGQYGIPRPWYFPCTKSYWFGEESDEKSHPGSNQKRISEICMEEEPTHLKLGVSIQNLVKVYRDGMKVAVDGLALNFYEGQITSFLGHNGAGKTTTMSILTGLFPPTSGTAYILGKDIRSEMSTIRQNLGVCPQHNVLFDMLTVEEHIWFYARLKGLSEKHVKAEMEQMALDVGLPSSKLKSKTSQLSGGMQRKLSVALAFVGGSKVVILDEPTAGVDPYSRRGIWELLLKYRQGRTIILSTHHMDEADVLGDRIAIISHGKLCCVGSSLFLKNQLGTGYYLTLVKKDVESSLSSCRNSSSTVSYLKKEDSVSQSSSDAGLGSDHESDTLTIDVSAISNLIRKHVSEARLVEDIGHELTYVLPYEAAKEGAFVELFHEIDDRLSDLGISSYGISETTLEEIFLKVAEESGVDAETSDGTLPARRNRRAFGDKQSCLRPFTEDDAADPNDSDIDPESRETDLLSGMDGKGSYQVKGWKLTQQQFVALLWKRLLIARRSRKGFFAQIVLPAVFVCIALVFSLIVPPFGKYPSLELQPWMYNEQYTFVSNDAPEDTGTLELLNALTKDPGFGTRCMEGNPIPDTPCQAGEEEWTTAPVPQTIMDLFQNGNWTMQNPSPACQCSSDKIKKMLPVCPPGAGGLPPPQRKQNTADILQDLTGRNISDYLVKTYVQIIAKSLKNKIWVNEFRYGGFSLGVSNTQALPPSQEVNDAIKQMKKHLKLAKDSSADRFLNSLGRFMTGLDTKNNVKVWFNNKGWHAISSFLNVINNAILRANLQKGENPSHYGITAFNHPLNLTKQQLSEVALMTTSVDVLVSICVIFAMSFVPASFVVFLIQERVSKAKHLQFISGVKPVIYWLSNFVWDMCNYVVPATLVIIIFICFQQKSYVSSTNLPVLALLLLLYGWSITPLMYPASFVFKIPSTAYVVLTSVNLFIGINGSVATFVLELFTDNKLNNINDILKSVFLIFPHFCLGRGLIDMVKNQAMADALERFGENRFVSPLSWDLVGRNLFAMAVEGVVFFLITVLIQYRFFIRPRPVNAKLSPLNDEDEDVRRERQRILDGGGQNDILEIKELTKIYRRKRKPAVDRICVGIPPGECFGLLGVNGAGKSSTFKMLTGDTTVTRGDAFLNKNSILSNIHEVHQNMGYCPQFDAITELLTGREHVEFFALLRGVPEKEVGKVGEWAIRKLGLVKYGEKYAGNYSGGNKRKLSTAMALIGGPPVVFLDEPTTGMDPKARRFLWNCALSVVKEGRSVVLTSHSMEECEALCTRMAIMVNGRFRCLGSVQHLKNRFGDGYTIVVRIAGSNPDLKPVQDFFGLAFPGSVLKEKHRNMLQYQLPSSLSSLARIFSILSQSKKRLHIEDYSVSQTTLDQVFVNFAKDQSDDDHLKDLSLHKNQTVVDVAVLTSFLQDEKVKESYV
binder,measurement,setting,value
DWLKAFYDKVAEKLKEAFPDWLKAFYDKVAEKLKEAF [L-37pA peptide],"cholesterol and phospholipid efflux, ABCA1 cells against control cells, 18 hours",[1],2 fold and 4 fold
same,concentration at which lipid efflux began to show saturation,[1],2 µM
same,cell-bound radiolabeled peptide in the absence of a competitor,[2],35
same,percent of labeled L-37pA binding blocked,[3],40%
